{
  "source": "patent US20150004133A1",
  "about": "“Compositions And Methods For Treating Steatohepatitis, Liver Fibrosis, and Hepatocellular Carcinoma (HCC)” (The Regents of the University of California, priority 2013, published 2015)",
  "molecules": {"B1": {"name": "IL-22: protein that in humans is encoded by the IL22 gene; cytokine purchased from R&D (protein, UniProt Q9GZX6 34-179, looked up)", "Interleukin-22": "APISSHCRLDKSNFQQPYITNRTFMLAKEASLADNNTDVRLIGEKLFHGVSMSERCYLMKQVLNFTLEEVLFPQSDRFQPYMQEVVPFLARLSNRLSTCHIEGDDLHIQRNVQKLKDTVKKLGESGEIKAIGELDLLFMSLRNACI"}, "B2": {"name": "IL-17F: IL-17 family cytokine; purchased from R&D (protein, UniProt Q96PD4 31-163, looked up)", "Interleukin-17F": "RKIPKVGHTFFQKPESCPPVPGGSMKLDIGIINENQRVSMSRNIESRSTSPWNYTVTWDPNRYPSEVVQAQCRNLGCINAQGKEDISMNSVPIQQETLVVRRKHQGCSVSFQLEKVLVTVGCTCVTPVIHHVQ"}, "B3": {"name": "IL-17E: Interleukin 25; cytokine that binds to IL-17RA and IL-17RB heterodimers (protein)", "chain": "YSHWPSCCPSKGQDTSEELLRWSTVPVPPLEPARPNRHPESCRASEDGPLNSRAISPWRYELDRDLNRLPQDLYHARCLCPHCVSLQTGSHMDPRGNSELLYHNQTVFYRRPCHGEKGTHKGYCLERRLYRVSLACVCVRPRVMG"}},
  "key": {"Stat3": {"system": "Stat3", "experiment": "Nuclear translocation of Stat3 in HSCs (fluorescent microscopy)", "type": "cell-based, mouse", "conditions": "primary murine HSCs, IL-17A 10 ng/ml", "description": "(§1) FIG. 9. […] Representative images are shown using ×20 objective. […] Deletion of Stat3 in HSCs was achieved by crossing GFAP-Cre mice×floxed Stat3^f/f mice=GFAP^Stat3−/− mice. […] Nuclear translocation of Stat3 (but not phosphor-Smad2/3) was detected in wild type HSCs but not in Stat3-deficient HSCs. Representative images are shown using ×20 objective. (E) IL-17-dependent collagen-α1(I) expression is impaired in Stat3-deficient HSCs.\nNext, phosphorylation of IL-17 target proteins in KC and HSCs was assessed in vitro (FIG. 18E). […] While the IL-17 signaling pathway in macrophages is characterized^8,22 (and FIG. 18F), IL-17 signaling in HSCs is unknown. […] Thus, similar to macropahges^8,22, NF-κB and Stat3 are downstream targets of IL-17 signaling in HSCs. While NF-κB signaling is required for survival of activated HSC^23, Stat3 may mediate HSC activation by stimulating collagen production."}, "primary murine HSCs": {"system": "primary murine HSCs", "experiment": "Collagen-α1(I)-GFP expression in primary HSCs from Col-GFP reporter mice", "type": "cell-based, mouse", "conditions": "48 hours; for expression of GFP (percent of cells upregulated collagen-α1(I)-GFP): IL-17A 10 ng/ml", "description": "as §1\nFor this purpose, primary HSCs were isolated from Col-GFP reporter mice (expressing GFP under collagen-α1(I) promoter) or Col-GFP^IL-17RA−/− mice (generated by crossing IL-17RA^−/− mice with Col-GFP mice, FIG. 9B)."}, "[1]": {"system": "primary wild type HSCs and Stat3-deficient HSCs", "experiment": "IL-17A-dependent collagen-α1(I) expression in wild type and Stat3-deficient HSCs", "type": "cell-based, mouse", "conditions": "IL-17A 10 ng/ml, 8 h", "description": "as §1\nHSCs are the only liver cell type that expresses GFAP^1. The role of Stat3 in IL-17A-mediated collagen-α1(I) expression was tested in primary wild type HSCs and Stat3-deficient HSCs, isolated from GFAP^Stat3−/− mice (GFAP^Cre mice×floxed Stat3^f/f mice, FIG. 9D). […] Next, the relevance of IL-17 signaling was accessed in human HSC cell lines."}, "BDL-operated mice": {"system": "BDL-operated mice", "experiment": "BDL-induced liver fibrosis in mice with daily administration of IL-22 or IL-17E", "type": "in vivo", "conditions": "0.5 μg/mouse daily for 7 days, compared to BDL wt mice+PBS", "method": "FIG. 11. IL-23 and IL-22 have opposing roles in liver fibrosis. […] Quantification of Sirius Red and α-SMA staining, mRNA expression is shown (p<0.05, compared to BDL wt mice). mRNA expression is fold induction compared to oil-control Wt→wt mice. (D) The percent of inhibition of liver fibrosis was calculated for BM chimeric mice in response to liver injury (in comparison Wt→wt mice, 100%, p<0.01) based on Sirius Red and α-SMA expression. […] Increased fibrosis was detected in IL-22^−/−→wt mice. (E) Administration of IL-22 and IL-17E attenuates liver fibrosis. BDL-operated mice were daily treated with IL-22 (0.5 μg/mouse, n=4), IL-17E (0.5 μg/mouse n=5), or vehicle (PBS) for 7 days, tissues were analyzed by Sirius Red, and α-SMA staining; mRNA expression is shown (p<0.05, compared to BDL wt mice+PBS).\nLiver injury was induced in mice by […] with CCl4 (1:4 dilution in corn oil, 200 μl×12 injections^2) or by BDL (3 weeks)^2.\nThe role of IL-22 and IL-17E in liver fibrosis was examined in BDL-operated mice, injected with IL-22 (0.5 μg/mouse) or IL-17E (0.5 μg/mouse, FIG. 11E)."}, "LX-2 human HSC cell line": {"system": "LX-2 human HSC cell line", "experiment": "Fibrogenic gene mRNA induction in the LX-2 cell line (RT-PCR)", "type": "cell-based", "conditions": "LX-2, 10 ng/ml, 72 h, compared with non-stimulated cells", "quoted_text": "RT-PCR and real time quantitative PCR. […] Methods.\nmRNA was isolated and RT-PCR was performed using ABI 7000 sequence detection system (Applied Biosystems), specific primers and SYBRGreen. Ct values of each sample were normalized to 18s mRNA expression. Values were expressed as fold induction in comparison with untreated or sham controls."}},
  "data": [
    {"molecule": "IL-17A: IL-17 family cytokine mainly produced by CD4+ Th17 cells; purchased from R&D", "values": [
      {"measurement": "time to nuclear translocation of Stat3 in HSCs", "setting": "Stat3", "result": "10 to 15", "unit": "min"},
      {"measurement": "expression of GFP (percent of cells upregulated collagen-α1(I)-GFP)", "setting": "primary murine HSCs; IL-17RA−/− HSCs (Col-GFP IL-17RA−/−)", "result": "5±2", "unit": "%"},
      {"measurement": "expression of GFP (percent of cells upregulated collagen-α1(I)-GFP)", "setting": "primary murine HSCs; wild type Col-GFP HSCs, baseline 1±0%", "result": "34±7", "unit": "%"},
      {"measurement": "collagen-α1(I) expression", "setting": "[1]; Stat3-deficient HSCs from GFAP Stat3−/− mice", "result": "failed to induce"},
      {"measurement": "collagen-α1(I) expression", "setting": "[1]; wild type (Stat3f/f) HSCs", "result": "induced"}
    ]},
    {"molecule": "TGF-β1: fibrogenic cytokine used as a control; purchased from R&D [reference compound]", "values": [
      {"measurement": "expression of collagen-α1(I)-GFP", "setting": "primary murine HSCs; both wild type and IL-17RA−/− HSCs, TGF-β1 3 ng/ml, control", "result": "strongly induced"}
    ]},
    {"molecule": "B1", "values": [
      {"measurement": "reduction of Sirius Red staining", "setting": "BDL-operated mice", "result": 3, "unit": "fold"},
      {"measurement": "reduction of mRNA for Col-α1(I)", "setting": "BDL-operated mice", "result": 3, "unit": "fold"},
      {"measurement": "reduction of mRNA for α-SMA", "setting": "BDL-operated mice", "result": 2.5, "unit": "fold"}
    ]},
    {"molecule": "B2", "values": [
      {"measurement": "induction of Col-α1(I) mRNA", "setting": "LX-2 human HSC cell line", "result": 7, "unit": "fold"},
      {"measurement": "induction of α-SMA mRNA", "setting": "LX-2 human HSC cell line", "result": 6, "unit": "fold"}
    ]},
    {"molecule": "B3", "values": [
      {"measurement": "reduction of Sirius Red staining", "setting": "BDL-operated mice", "result": 3, "unit": "fold"},
      {"measurement": "reduction of mRNA for Col-α1(I)", "setting": "BDL-operated mice", "result": 3, "unit": "fold"},
      {"measurement": "reduction of mRNA for α-SMA", "setting": "BDL-operated mice", "result": 2.5, "unit": "fold"}
    ]}
  ]
}
